The DeepSol protein solubility set

Assay: soluble on expression in E. coli; label from the status in PepcDB or PDB records

Question: For “MADIGSTYNGPLSSHWFPEELAQWEPDSDPDAPFNRSHVPLEPGRVADRVNANADTDAHLVSLSALNRHTSGVPSQGAPVFYENTFSYWHYTDLMVYWAGSAGEGIIVPPSADVIDASHRNGVPILGNVFFPPTVYGGQLEWLEQMLEQEEDGSFPLADKLLEVADYYGFDGWFINQQTEGADEGTAEAMQAFLVYLQEQKPEGMHIMWYDSMIDTGAIAWQNHLTDRNKMYLQNGSTRVADSMFLNFWWRDQRQSNELAQALGRSPYDLYAGVDVEARGTSTPVQWEGLFPEGEKAHTSLGLYRPDWAFQSSETMEAFYEKELQFWVGSTGNPAETDGQSNWPGMAHWFPAKSTATSVPFVTHFNTGSGAQFSAEGKTVSEQEWNNRSLQDVLPTWRWIQHGGDLEATFSWEEAFEGGSSLQWHGSLAEGEHAQIELYQTELPISEGTSLTWTFKSEHGNDLNVGFRLDGEEDFRYVEGEQRESINGWTQWTLPLDAFAGQTITGLAFAAEGNETGLAEFYIGQLAVGADSEKPAAPNVNVRQYDPDPSGIQLVWEKQSNVHHYRVYKETKHGKELIGTSAGDRIYLEGLVEESKQNDVRLHIEALSETFVPSDARMIDIKSGSF”, which “soluble on expression in E. coli” value is on record?
Answer: soluble

Question: Which “soluble on expression in E. coli” value does the source give for “MADPWLSIIGLGEDGPAGLPDASRAALEAAEVVVGGPRHLALVDARARGMEWPVPFDPAPVLALRGRPVAVLASGDPFWHGAGGSLAAALSPGEWRAYPAPGVVALAAARLGWRQEELLALGLHAAPFERLLPELAPGRRGVCTLRDGPAAGALAAFLAAEGWGESRLWVMEALGGPRERVRATTAGAFSLTDVAAPVTVAFEAEGGRAQPRSAGLPDSLFAHDGQITKAPVRALTLAALAPRRGEILWDLGAGSGSVSVEWCLAGGRAVAVELRPERAANIRANAARFALPLEVVEGRALDNLPALPAPDAIFVGGGFDEALFAALPPTARLVVNAVTLETEALLAALQARHGGELLRIELARAAPLGRMRGWEAARPVVQWSLVR” here?
Answer: not soluble

Question: For “MADQEHIDAGLLSTNFDMIQALPLNVKQRVCALKNLQMKTIQIESDFYKRVHELEIEFEGKFKSTFDQRKAIVAGEVEPTKEQIDTPILEGLEGDQLAELYKAAEADPSAKGIKDFWLTALRTHDLVAEAIEEHDVPILSYLTDVTTAASKDPAGFKIEFHFATNPYFKNQVLTKTYLLGFDPDAEAPLQFDGPHVIRAVGDTIEWEDGKNVTKKAVKKKQKKGANAGKFLTKTVKADSFFNFFEPPKSKDERNEDEDDEQAEEFLELDYEMGQAIRDTIIPRAVLFYTGELQSDDMFDFPGEDGDDVSDFSDDEA”, which “soluble on expression in E. coli” value is on record?
Answer: soluble

Question: With “MADRDATLWASHEKMLSQPLKDSDAEVYSIIKKESNRQRVGLELIASENFASRAVLEALGSSLNNKYSEGYPGQRYYGGTEFIDELEMLCQKRALQAYHLDPQCWGVNVQPYSGSPANFAVYTALVEPHGRIMGLDLPDGGHLTHGFMTDKKKISATSIFFESMPYKVYPETGYINYDQLEENASLFHPKLIIAGTSCYSRNLDYARLRKIADDNGAYLMADMAHISGLVAAGVVPSPFEHCHVVTTTTHKTLRGCRAGMIFYRKGVRSVDPKTGKETYYELESLINSAVFPGLQGGPHNHAIAGVAVALKQAMTTEFKIYQLQVLANCRALSDALTELGYKIVTGGSDNHLILMDLRSKGTDGGRAEKVLEACSIACNKNTCPGDKSALRPSGLRLGTPALTSRGLLEEDFQKVAHFIHRGIELTLQIQSHMATKATLKEFKEKLAGDEKIQSAVATLREEVENFASNFSLPGLPDF” as the sequence, how does the “soluble on expression in E. coli” value read?
Answer: soluble

Question: For “MADSAELKQMVMSLRVSELQVLLGYAGRNKHGRKHELLTKALHLLKAGCSPAVQMKIKELYRRRF”, which “soluble on expression in E. coli” value is on record?
Answer: soluble

Question: Which “soluble on expression in E. coli” value does the source give for “MADVTGIALGMIETRGLVPAIEAADAMTKAAEVRLVGRQFVGGGYVTVLVRGETGAVNAAVRAGADACERVGDGLVAAHIIARVHSEVENILPKAPQA” here?
Answer: soluble

Question: With “MADYKVKDISLAEWGRKAIELAENEMPGLMELRREYGPSQPLKGAKIAGCLHMTVQTAVLIETLKALGAELRWSSCNIFSTQDNAAAAIAKTGVPVFAWKGETDEEYEWCIAQTVKGFSGDGLPNMILDDGGDLTNLVIDRYPELVPKIFGISEETTTGVKNLYKRLSKGNLPISAINVNDSVTKSKFDNLYGCRESLVDGIKRATDVMIAGKTCCVCGYGDVGKGCAAALRAFGARVVVTEVDPINALQASMEGYQVALVEDVMADAHIFVTTTGNDDIITSDHFPHMRDDAIVCNIGHFDTEIQVGWLEANAKEHVEIKPQVDRYTMENGRHIILLAKGRLVNLGCASGHPSFVMSNSFTNQVLAQIELWSNRDNGKYPRGDKAGVFFLPKALDEKVAALHLAHVGAKLTKLTPKQAEYINCPVNGPFKPDHYRY” as the sequence, how does the “soluble on expression in E. coli” value read?
Answer: soluble

Question: Which “soluble on expression in E. coli” value does the source give for “MAEEHHHHHHHHLEVLFQGPGRPKTHTVGSVAKVEQVKFDATSMHVKPQVAAQQKMVDDGSGEVQVWRIENLELVPVDSKWLGHFYGGDCYLLLYTYLIGEKQHYLLYVWQGSQASQDEITASAYQAVILDQKYNGEPVQIRVPMGKEPPHLMSIFKGRMVVYQGGTSRTNNLETGPSTRLFQVQGTGANNTKAFEVPARANFLNSNDVFVLKTQSCCYLWCGKGCSGDEREMAKMVADTISRTEKQVVVEGQEPANFWMALGGKAPYANTKRLQEENLVITPRLFECSNKTGRFLATEIPDFNQDDLEEDDVFLLDVWDQVFFWIGKHANEEEKKAAATTAQEYLKTHPSGRDPETPIIVVKQGHEPPTFTGWFLAWDPFKWSGIHVVPNLSPLSNN” here?
Answer: soluble

Question: With “MAEERGRPQYRPNCNGLSSYYRERFGSHSPEVYLNLRISGFDDRLEREQIKQYLTQELKKYAPFEIKVVKNPEEDERLAYVNFERNDCARKVRYTLMDRLKSVLGKRVQCDPAGILRDQEGKYIPDRFNRAQHGADSKREGGSGSGNRGRPTKEPSTWRLKQDDDEATRTLFVGNMPSDVKEREIRHVFEEHGKVEEVDIKTPINTDAAYAFVMFQTVDQAIQAKAEEQDRPIRAGGSRMKIGYGKSQVSRRLFVGGLGSWCDKEILQKAFGEFGFVENIDYDHGQPYAYVVYENTHTSQEACRSLRGACISKGNHPIMVDYAKDLTAQPEKQQFMRKRRASKSPVGASAVRTPPGSPKDVVRNFAELEEAYAATWSGKMALKKTDYPVKFYRVYGAERLPVKLLRDEDDVPLRLLITQRLSLSSQNLLFDKLASCSSKELSLGVITGKKELSDLQPLVNYFTNKEAAGVVTVPGGILYIFPFCEFALKLLAEFTPQVNVFNENCPFLLGALAVRAPGTP” as the sequence, how does the “soluble on expression in E. coli” value read?
Answer: not soluble

Question: Which “soluble on expression in E. coli” value does the source give for “MAEGERLYLCGEFTKAIQSFTNALHLQSGDKNCLVARSKCYLKMGDLEKSLNDAEASLRNDPTFCKGILQKAETLYTMGDFEFALVFYHRGYKLRPDREFKVGIQKAQEAINNSVGSPSSIKLENKGDLSFLSKQAESKKAQQKHLPIKQLSYSTKHEIKRKGSLKSEKTVRQLLGELYVDKEYLEKLLLDEDLIKGTIKSGLTVEDLIMTGINYLDTRSNFWRQQKPIYARERDRKLMQEKWLRDRKRSPSQTAHYILKSLEDIDMLLTSGSADGSLQKAEKVLKKVLEWNQEEVPNKDELVGNLYSCIGNAQIELGQMVAALQSHRKDLEIAKEHDLPDAKSRALDNIGRVFARVGKFQQAIDVGGEDPSSQNHPGEDLALPRDWPLLLGAGPGVAGPELWGKVSAVR” here?
Answer: soluble

Question: For “MAEGERQPPPDSSEEAPPATQNFIIPKKEIHTVPDMGKWKRSQAYADYIGFILTLNEGVKGKKLTFEYRVSEAIEKLVALLNTLDRWIDETPPVDQPSRFGNKAYRTWYAKLDEEAENLVATVVPTHLAAAVPEVAVYLKESVGNSTRIDYGTGHEAAFAAFLCCLCKIGVLRVDDQIAIVFKVFNRYLEVMRKLQKTYRMEPAGSQGVWGLDDFQFLPFIWGSSQLIDHPYLEPRHFVDEKAVNENHKDYMFLECILFITEMKTGPFAEHSNQLWNISAVPSWSKVNQGLIRMYKAECLEKFPVIQHFKFGSLLPIHPVTSG”, which “soluble on expression in E. coli” value is on record?
Answer: soluble

Question: With “MAEGNTLISVDYEIFGKVQGVFFRKHTQAEGKKLGLVGWVQNTDRGTVQGQLQGPISKVRHMQEWLETRGSPKSHIDKANFNNEKVILKLDYSDFQIVG” as the sequence, how does the “soluble on expression in E. coli” value read?
Answer: soluble

Question: For “MAEHDLTARMAGHLDCHLVLPLLEFLQERHLYPEEEILEAKIRLLRGTNMVDYAMDIHKSRYGTDDVPEDMVKRRAEVVSRLTSLGEAIDNIHQNQQIGPDQIETLYQYAKFQFDCGNYSFAAQYLHQYRALCTNIERSLSALWGKLAAEILMQNWDVALEELNRLKEIIDSKNFSSPLNQLQNRIWLMHWSIFIFYNHENGRNGIIDLFFQERYLNAIQTNAPHLLRYLATAVVVNKRRRNMLKELIKVIQQEQHSYKDPITEFLECLFVNYDFDGAQQKLIECEEVILNDPFLGKRIEEGNSITVPLRDEFLENARLFIFETYCRIHRSIDIGMLSQKLNMRYDEGELWIMNLVRNSKLDAKIDSVSGTLIMTTNHVNIHEQFIESLKNLNMRTSMLAKNIVEPAQAMQQATR”, which “soluble on expression in E. coli” value is on record?
Answer: not soluble

Question: Which “soluble on expression in E. coli” value does the source give for “MAEHGETQADEEEEEQVWSWGAGTDGQLGTTKLQDELLPQLLSLTSLPSISMLACGGAHVIALTSGGKVFTWGRGSSGQLGHGDILNITLPKLVSFFDDSVITQAAAGWSHSGFVSDSGCIFTCGNGSFGQLGHGDTLSLSTPAKVSHFNNDSVKMVACGMRHSLVLFAGNQVCGFGSGKRGQLGFSSDRIKSVNLPCVVSGLKDVEVVRISANGDHSAAISADGQFFSWGRGFCGGPDVHAPQSLPSPLSFREVAVGWNHALLLTVDGEVFKLGSTLNKQPEKQQLQIDSSEALFEKVPDFDGVKVMQIAAGAEHSAAVTENGEVKTWGWGEHGQLGLGNTNDQTSPELVSLGSIDLRTKEIKVYCGSGFTYAVKRKQELSPTSS” here?
Answer: soluble

Question: Which “soluble on expression in E. coli” value does the source give for “MAEHRGGSGNFAEDREKASDAGRKGGQHSGGNFKNDPQRASEAGKKGGQQSGGNKSGKS” here?
Answer: soluble

Question: Which “soluble on expression in E. coli” value does the source give for “MAEIYEEGDESVDVNKESEVKTELGKGGGDENVLQFLDSLDGYLTLMDSVNSKLREGWFDLASARHSMGTLRINSTLLDLKYHPASSTLQVTDQDVESLGSVPHFALSKWASKGGSRKGKDFSTDTDSEIGSPLSPQLRHRGVSEEKPSAKDETVLAADEEIKKERAKSLSVFGGLVSPKLRGAQQSFETALETLVEIANMRASMISAFERITEK” here?
Answer: soluble

Question: Which “soluble on expression in E. coli” value does the source give for “MAEKFDCHYCRDPLQGKKYVQKDGHHCCLKCFDKFCANTCVECRKPIGADSKEVHYKNRFWHDTCFRCAKCLHPLANETFVAKDNKILCNKCTTREDSPKCKGCFKAIVAGDQNVEYKGTVWHKDCFTCSNCKQVIGTGSFFPKGEDFYCVTCHETKFAEHCVKCNKAITSGGITYQDQPWHADCFVCVTCSKKLAGQRFTAVEDQYYCVDCYKNFVAKKCAGCKNPITGFGKGSSVVAYEGQSWHDYCFHCKKCSVNLANKRFVFHQEQVYCPDCAKKL” here?
Answer: soluble

Question: For “MAENKKKNDDMATVEFESSEEVSIIPTFDKMGLREDLLRGIYAYGFEKPSAIQQRAIPAILKARDVIAQAQSGTGKTATFSISVLQSLDTQVRETQALILSPTRELAVQIQKVVLALGDYMNVQCHACIGGTNLGEDIRKLDYGQHVVSGTPGRVFDMIRRRNLRTRAIKLLVLDEADEMLNKGFKEQLYDIYRYLPPGAQVVLLSATLPHEILEMTSKFMTDPIRILVKRDELTLEGIKQFFVAVDREEWKFDTLIDLYDTLTITQAVLFCNTRRKVDWLTDKMKEANFTVSSMHGDMEQKDRDEVMKEFRAGTTRVLISTDVWARGLDVPQVSLVINYDLPNNRELYIHRIGRSGRFGRKGVAINFVKQDDVRILRDIEQYYSTQIDEMPMNIADII”, which “soluble on expression in E. coli” value is on record?
Answer: not soluble

Question: Which “soluble on expression in E. coli” value does the source give for “MAEQQPSKEEKKEDKKDEKEEELPAPSVQQSIRQLPKIQITDDDKGEQLPECTEGEWDASDEPFSAELLNVKNAPNKVSVFSGPYRSKETIEKIKKFRAAMPPVIPIIDERPDKLAQMMSRIFSEIIDGRDLSKIKVFFFIK” here?
Answer: not soluble
